Results taken from the DeepSol protein solubility set.

Experiment: soluble on expression in E. coli; label from the status in PepcDB or PDB records

Sequence	soluble on expression in E. coli
MGSDKIHHHHHHMEVAAVDSLEALYKMVAKLYRRLSASARKRLLEGVELAAEKGDPALAYHRLSTLARDYYGDSLPYASDGYYKTYKHTRCVGLPEPTKVSGVDVLEAIRRRRSRRSFSRRPLTLTEVSTILFHVAGITGLAWWGGPKRPYPSAGALQPVEAYLVVERVEGLKPGLYHYNPSGHCLEMLREGKLLGRLADVSLGQDHVAEAAAALVLTAVYTRTGSKYGHRSYRYVHWDTGFAGENVYLVCEALGLATVAVGAFYDDEMCGFLEIDCPWEMPMLVFPVGARG	not soluble
MAHHHHHHMNIPNPRVFLDIAIGGRNAGRMIFELFMDKLPITCENFRCLCTGETGLGYYLKPRWYKNSPIHRIVTDFMFQGGDFNFGNGYGGESIYGQYFRNEKFIYKHSKRGILSMCQTRIKHTNNSQFFVTFKSCPWLDKRHVVLGHLEYGFDTLSFIEEQGTLIGKPKKQVFIYNCGVIPLDKIKYKSADNSDDDYIIPDIEKPLLEKDISINENSDFNELRNMYKYNKHF	not soluble
MSLTFHEIRFPEDISYGSTGGPEFSTSIVQTNNGSEYRKVNLSYSRNKYNIMYNMKSEDQLLKLINFFYVHKGKAIGFRFKDWSDYKAKKEHIGIGNDKQKKFQIIKTYSIDQHSYIRKITKPVINTVKIYYDDIEKVDGFSVNFSNGQIEFNTPPHNGVTIYADYEFDVPVRFDSDYLPYSMDNYNEHNCNNIALIEIKTEGHHHHHH	soluble
MARFALVLHAHLPYVRAHGMWPFGEETLYEAMAETYLPLIRVLERLRAEGVEAPFTLGITPILAEQLADARIKEGFWAYAKDRLERAQGDYQRYRGTALEASARHQVAFWELTLDHFQRLSGDLVAAFRKAEEGGQVELITSNATHGYSPLLGYDEALWAQIKTGVSTYRRHFAKDPTGFWLPEMAYRPKGPWKPPVEGPPEGVRPGVDELLMRAGIRYTFVDAHLVQGGEPLSPYGEAALGPVESQEATYHVHELESGLRVLARNPETTLQVWSADYGYPGEGLYREFHRKDPLSGLHHWRVTHRKADLAEKAPYDPEAAFAKTEEHARHFVGLLERLAGRHPEGVILSPYDAELFGHWWYEGVAWLEAVLRLLAQNPKVRPVTAREAVQGPAVRTALPEGSWGRGGDHRVWLNEKTLDYWEKVYRAEGAMREAARRGVLPEGVLRQAMRELLLLEASDWPFLMETGQAEAYARERYEEHARAFFHLLKGASPEELRALEERDNPFPEADPRLYLFREA	soluble
EGDKVTGEVQQVEDKQVVVHINGGKFNGIIPISQLSTHHIENPSEVVKVGDEVEAYVTKIEFDEENDTGAYILSKRQ	not soluble
MSLSRCLPLGQNARVIIIPARLAHAASTQAAAATDDAPNFFQKLAHRFQGVPLKGEAHAPKSMFEDCNKEWSAPEPLPAIPKDFKEHPDRDLVNYPYPARPMYPPKSRLLMMPDSWFTPFQKVTGVSGPYLFFGGLFAFLVNKELWVFEEQGHMTVGWILFYLLVTRTAGYKIDQGLYNGYQERVNFFKGLIQEDLKEAVEFKKTSAKQTESLNSIKESYPTALKESMALQLEATYRKNVQSVATELKRRIDYLKETEESKARVEREQLLKLINSEVDKEFSDRSFKDKYLQNAIQQLKGLNVQL	not soluble
MSLKNPRIVVVDDSPFSVSILTDMLQRNGFEVVGSASNLNEVKKAVTELNPNLVTMDMVLADTDGLECTKIIHQINPEIRVIAISSMMDDEILAKAKKNNISAYIQKPIDEEELVLAINRISSDDDLYSELKDRYFDIFKQAFSYAFNKFIKEVPNFVEKDEHTVEHVEKGISIVMGIIGKYCGRLILNISYETADKFVESVLNRPAKDLQEILNVVAEFANIVGGNACSMINRENKIFGMRIAPPTTIYGDSINISRNSLDTMNFFTVNVTAGEISVNIGFNKGAVEWMSNEGHHHHHH	soluble
KTFAALGSGVIGSGWIARALAHGLDVVAWDPAPGAEAALRARVANAWPALRKQGLAPGAAQERLRFVASIEECVGDADFIQESAPERLDLKLDLHARISAAARPDVLIGSSTSGLLPSEFYAEASHPERCLVGHPFNPVYLLPLVEVVGGERTAAEAVRAAMRVYESLGMRPLHVRKEVPGFIADRLLEALWREALHLVNDGVATTGEIDDAIRFGAGLRWSFMGTFLTYTLAGGNAGMRHFMAQFGPALQLPWTYLPAPELTEALIDRVVEGTAEQQGARSIAELERYRDDCLLAVLGAIRETKARHGFA	not soluble
